Results on one molecule are retold here after patent US20130280318A1, “Tissue Scaffolds for Controlled Release of Active Agents” (The Trustees of Columbia University in the City of New York, priority 2010, published 2013).

The test system of this assay is Chondrocytes. As to the kind of experiment: Chondrocyte growth on scaffolds (total DNA, Picogreen). It is filed as cell-based, bovine. The note with it: TGF-β3 released from tissue scaffold. As for the experimental part:
Chondrocytes enzymatically digested from bovine calves (6×10^4 cells/cm^2) were cultured on scaffolds in serum-free ITS+ media. Experimental group included PLGA-TGFβ3 scaffolds, while cells cultured on PLGA and on PLGA with exogenous TGF-β3 (1 ng/mL) served as controls. Viability was evaluated with confocal microscopy (n=3).
Total DNA (n=6) was quantified by Picogreen Assay. Glycosaminoglycan (GAG) and collagen syntheses (n=6) were assessed by dimethylmethylene blue (DMMB) and Sircol assays, respectively. Gene expressions (Col I, II, and X) were analyzed by RT-PCR (n=4).

B1: transforming growth factor-beta 3 (protein, UniProt P10600 301-412, looked up)
Transforming growth factor …: ALDTNYCFRNLEENCCVRPLYIDFRQDLGWKWVHEPKGYYANFCSGPCPYLRSADTTHSTVLGLYNTLNPEASASPCCVPQDLEPLTILYYVGRTPKVEQLSNMVVKSCKCS
modifications: Transforming growth factor beta-3
As to B1, the “bioactivity of released TGF-β3 (chondrocyte proliferation and biosynthesis)” value is “bioactive”.
